Measured values published in patent US20040241164A1 (published 2004).

Target: T1, Soluble Aβ 1-40 (UniProt P05067 672-711)
T1 construct: domain: Aβ 1-40; Unaggregated, predominantly monomeric peptide flowed over captured antibody; The numbers 1-40 count on the Aβ peptide, not on the APP precursor
Assay: BIAcore SPR, alternate method: antibody captured on protein A or A/G, Aβ 1-40 in flow, 5 hour dissociation, 1:1 model with mass transfer; alternate method: antibody captured on protein A or A/G, 5 hour dissociation
Procedure: Protein A or protein A/G is immobilized via amine coupling to flow cells 1 and 2 of a B1 or CM5 sensor chip (BIAcore). The test antibody is then captured in flow cell 2 at desired levels (usually a 10-60 second injection of antibody) and 5 minutes is allowed for the antibody to stabilize. […] Each concentration is injected over the surface for 5 minutes at a flow rate of 50 μL/min. […] Aβ 1-40 and antibody are then eluted from both flow cells with a 40 second injection of glycine (pH 1.5). The signal is allowed to stabilize for 2 minutes before the next cycle. The data from flow cell 1 is subtracted from flow cell 2 to account for any bulk shifts due to buffer differences or non-specific binding to the sensor chip or protein A. The various concentrations are injected randomly and each concentration is run in duplicate. Two 0 nM runs are used to control for any dissociation of antibody from the protein A or A/G capture surface. The data is analyzed using the Biaevalution software. A 1:1 model with mass transfer and a local Rmax is used as the best fit for the data.

B1: humanized 266 antibody (antibody, human IgG1, kappa, V domains shown)
VH: EVQLVESGGGLVQPGGSLRLSCAASGFTFSRYSMSWVRQAPGKGLELVAQINSVGNSTYYPDTVKGRFTISRDNAKNTLYLQMNSLRAEDTAVYYCASGDYWGQGTLVTVSS
VL: DVVMTQSPLSLPVTLGQPASISCRSSQSLIYSDGNAYLHWFLQKPGQSPRLLIYKVSNRFSGVPDRFSGSGSGTDFTLKISRVEAEDVGVYYCSQSTHVPWTFGQGTKVEIKR
- Kd: 400 pM
